Laboratory results from patent EP4692123A1, “ANTI-BCAM ANTIBODY AND ANTIBODY-DRUG CONJUGATE” (priority 2023, dated 2024).
“And” between values parts separate entries of the source, which are not always exact repeats. Equal values may be shown once.

Assays:
[1] = target: T1, human BCAM protein (10238-H08H, SinoBiological, China) (human, UniProt P50895 32-547); assay: BLI (Octet R8), human BCAM amine-coupled on AR2G biosensors, antibody in solution, 1:1 model
T1 construct: Bought recombinant protein; also called antigen protein; Lu
T1 sequence (looked up): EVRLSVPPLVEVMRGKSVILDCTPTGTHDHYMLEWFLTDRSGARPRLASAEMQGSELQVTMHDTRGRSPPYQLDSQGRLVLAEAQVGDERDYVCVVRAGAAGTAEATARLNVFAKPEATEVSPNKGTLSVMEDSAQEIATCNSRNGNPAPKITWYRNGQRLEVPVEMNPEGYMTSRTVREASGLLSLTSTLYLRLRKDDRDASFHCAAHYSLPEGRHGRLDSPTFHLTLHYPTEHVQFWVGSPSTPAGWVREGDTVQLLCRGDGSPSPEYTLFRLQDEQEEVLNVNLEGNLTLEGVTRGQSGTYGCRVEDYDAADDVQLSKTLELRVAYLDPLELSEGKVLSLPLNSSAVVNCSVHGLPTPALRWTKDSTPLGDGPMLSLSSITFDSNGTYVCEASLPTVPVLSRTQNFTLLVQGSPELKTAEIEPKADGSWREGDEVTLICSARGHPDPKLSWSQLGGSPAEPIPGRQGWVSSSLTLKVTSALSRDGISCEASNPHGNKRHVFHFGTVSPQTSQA

[2] = target: T1, human BCAM protein (10238-H08H, …); assay: ELISA, plate coated with human BCAM, anti-human IgG Fc-HRP detection
[3] = target: T2, human BCAM antigen protein expressed on the cell surface (human, UniProt P50895 32-628); assay: flow cytometry on HEK293FT cells transfected with human BCAM
T2 construct: whole, on cells; also called human BCAM expressed on the cell surface; BCAM on HEK293FT cells transfected with the 293FT/BCAM plasmid
T2 sequence (looked up): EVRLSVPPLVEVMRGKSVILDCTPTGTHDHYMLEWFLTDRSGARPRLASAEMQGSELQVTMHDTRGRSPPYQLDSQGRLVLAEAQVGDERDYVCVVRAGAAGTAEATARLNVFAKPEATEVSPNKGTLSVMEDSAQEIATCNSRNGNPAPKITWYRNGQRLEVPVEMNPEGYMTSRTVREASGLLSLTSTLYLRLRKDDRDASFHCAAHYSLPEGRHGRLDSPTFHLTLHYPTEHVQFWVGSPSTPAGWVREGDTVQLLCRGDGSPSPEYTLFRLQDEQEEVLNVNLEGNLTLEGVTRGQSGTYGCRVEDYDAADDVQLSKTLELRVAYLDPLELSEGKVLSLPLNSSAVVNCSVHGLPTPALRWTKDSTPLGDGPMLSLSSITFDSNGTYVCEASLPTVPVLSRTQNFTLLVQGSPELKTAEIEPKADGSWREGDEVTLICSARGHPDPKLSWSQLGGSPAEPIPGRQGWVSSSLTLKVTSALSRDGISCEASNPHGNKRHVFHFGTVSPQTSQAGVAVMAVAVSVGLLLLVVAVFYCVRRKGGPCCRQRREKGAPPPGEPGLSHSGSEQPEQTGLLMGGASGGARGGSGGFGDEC

[4] = target: T1, human BCAM protein (10238-H08H, …); assay: ELISA, plate coated with 7 nM human BCAM, anti-human IgG Fc-HRP detection
DU145 = assay: In vitro anticancer effect, CellTiter-Glo cell viability; type: cell-based, human; conditions: DU145, 72 hours
Experimental: (§1) An in vitro experiment was conducted to confirm the anticancer effect of the Ab-II antibody-drug conjugate produced in Example 4 on human cell lines that express high levels of BCAM.
(§2) 5 x 10^3 cells of SK-BR-3 (human breast cancer cell line, KCLB), OVCAR3 (human ovarian cancer cell line, KCLB), and DU145 (human prostate cancer cell line, KCLB) were seeded into a 96-well plate (3595, Corning, USA). The next day, after confirming cell attachment to the plate, the existing cell culture was removed. Ab-II, produced in Example 4, was serially diluted in cell culture medium from 1 µM in a 5-fold dilution series across 8 points (down to 12.8 pM), and 200 µL was added to each well. On the day of drug treatment, the luminescence of the negative control (0% control, untreated with the drug) was measured. The culture medium was removed, 100 µL of CellTiter-Glo® (Promega, USA) solution was added to each well, and after reacting for 10 minutes at room temperature, the luminescence was measured with a microplate reader (Synergy H1, Biotek, USA). The experimental group treated with the drug and the positive control group (100% control, untreated with the drug) were reacted for 72 hours in a 37°C CO2 incubator. Afterward, the culture medium was removed, 100 µL of CellTiter-Glo® solution was added to each well, and after reacting for 10 minutes at room temperature, the luminescence was measured with the microplate reader. The % cell viability for Ab-II was calculated by substituting into the formula: [(Ab-II treated group) - (0% control group)] / [(100% control group) - (0% control group)]. The GI50 (half-maximal growth inhibition concentration) value of Ab-II for each cell line was calculated using GraphPad Prism (GraphPad software Inc., USA) based on the % cell viability.

SK-BR-3 = assay: as above; type: cell-based, human; conditions: SK-BR-3, 72 hours
Experimental: as §1, §2

OVCAR3 = assay: as above; type: cell-based, human; conditions: OVCAR3, 72 hours
Experimental: as §1, §2

B1: Ab-I antibody (anti-BCAM human IgG4 antibody) (antibody, V domains shown)
VH: EVQLVESGGGLVKPGGSLRLSCAASGFTFSSYSMNWVRQAPGKGLEWVSSISSSSSYIYYADSVKGRFTISRDNAKNSLYLQMNSLRAEDTAVYYCARIIGGWLGDYWGQGTLVTVSS
VL: NIQMTQSPSSVSASVGDRVTITCRASQGISSWLAWYQQKPGKAPKLLIYAASSLRSGVPSRFSGSGSGTDFTLTISSLQPEDFATYYCQQANSFPPPTFGGGTKVEIK
notes: From a human scFv phage library, expressed in ExpiCHO-S
Kd [1]: 0.991 nM
koff [1]: 0.00216 s⁻¹
kon [1]: 2.18e+06 M⁻¹ s⁻¹
EC50 [2]: 0.124 nM
EC50 [3]: 0.594 nM and 0.086 µg/mL

B2: Ab-II antibody-drug conjugate (antibody, DAR 5.3, V domains shown)
VH: EVQLVESGGGLVKPGGSLRLSCAASGFTFSSYSMNWVRQAPGKGLEWVSSISSSSSYIYYADSVKGRFTISRDNAKNSLYLQMNSLRAEDTAVYYCARIIGGWLGDYWGQGTLVTVSS
VL: NIQMTQSPSSVSASVGDRVTITCRASQGISSWLAWYQQKPGKAPKLLIYAASSLRSGVPSRFSGSGSGTDFTLTISSLQPEDFATYYCQQANSFPPPTFGGGTKVEIK
modifications: Compound 1 conjugated through its maleimide group to antibody cysteine side chains after partial reduction of the disulfide bonds; positions not given; DAR 5.3
notes: Calculated DAR 5.3; also called anti-BCAM antibody-drug conjugate Ab-II
EC50 [4]: 0.269 nM

B3: Ab-II (conjugate)
VH: EVQLVESGGGLVKPGGSLRLSCAASGFTFSSYSMNWVRQAPGKGLEWVSSISSSSSYIYYADSVKGRFTISRDNAKNSLYLQMNSLRAEDTAVYYCARIIGGWLGDYWGQGTLVTVSS
VL: NIQMTQSPSSVSASVGDRVTITCRASQGISSWLAWYQQKPGKAPKLLIYAASSLRSGVPSRFSGSGSGTDFTLTISSLQPEDFATYYCQQANSFPPPTFGGGTKVEIK
GI50 (DU145): 17 nM
GI50 (SK-BR-3): 0.21 nM
GI50 (OVCAR3): 0.35 nM
